{"source": "the supplement of paper PMC10567573", "parents": {"B1": {"name": "SOAT2 (parent)", "chain": "SLGKQKVFIIRKSLLDELMEVQHF"}}}
{"variants_of": "B1", "test": "protein stability index of a GFP-peptide fusion (GPS, HEK-293T) (PSI 1-6); higher = more stable", "details": "c terminus: a fixed tail appended"}
{"variant": "SLGKQKVFIIRDSLLDELMEVQHF", "protein stability index": 3.43}
{"variant": "SLGKQKVFIIRKSLLDELMFVQHF", "protein stability index": 3.11}
{"variant": "SLGKQKVFICRKSLLDELMEVQHF", "protein stability index": 2.69}
{"variant": "SLGKQKVFIIRKSLNDELMEVQHF", "protein stability index": 1.88}
{"variant": "SHGKQKVFIIRKSLLDELMEVQHF", "protein stability index": 3.11}
{"variant": "SLGKQKVFIIRKSLLDSLMEVQHF", "protein stability index": 3.09}
{"variant": "SLGKQKVFIIRKSLLDELMEHQHF", "protein stability index": 2.23}
{"variant": "SLGKQKVFIIRKSLLWELMEVQHF", "protein stability index": 3.25}
{"variant": "SLGKQKVFIIRTSLLDELMEVQHF", "protein stability index": 3.09}
{"variant": "SLGKQKVFIIRKSLLDELMLVQHF", "protein stability index": 3.13}
{"variant": "SLGKQAVFIIRKSLLDELMEVQHF", "protein stability index": 2.08}
{"variant": "SLGKQKVFIIRKSELDELMEVQHF", "protein stability index": 2}
{"variant": "SLGKQKVFIIVKSLLDELMEVQHF", "protein stability index": 2.19}
{"variant": "SLGKQKVFCIRKSLLDELMEVQHF", "protein stability index": 1.76}
{"variant": "SLGLQKVFIIRKSLLDELMEVQHF", "protein stability index": 2.54}
{"variant": "SLGKQKVFDIRKSLLDELMEVQHF", "protein stability index": 2.18}
{"variant": "SLGKQKVFIIRKSLLEELMEVQHF", "protein stability index": 2.39}
{"variant": "SLGKQKVFIIRKRLLDELMEVQHF", "protein stability index": 2.86}
{"variant": "SLGKQKVFIIRKSLLGELMEVQHF", "protein stability index": 2.76}
{"variant": "SLGKQKVFIIEKSLLDELMEVQHF", "protein stability index": 2.99}
{"variant": "SLGKQHVFIIRKSLLDELMEVQHF", "protein stability index": 1.97}
{"variant": "SLGKQMVFIIRKSLLDELMEVQHF", "protein stability index": 3.33}
{"variant": "SLGKQKVFWIRKSLLDELMEVQHF", "protein stability index": 3.62}
{"variant": "SCGKQKVFIIRKSLLDELMEVQHF", "protein stability index": 3.02}
{"variant": "SLGKQKVFIIRFSLLDELMEVQHF", "protein stability index": 3.49}
{"variant": "SLGKQKVFIIRKKLLDELMEVQHF", "protein stability index": 1.67}
{"variant": "SLGKQRVFIIRKSLLDELMEVQHF", "protein stability index": 2.74}
{"variant": "SQGKQKVFIIRKSLLDELMEVQHF", "protein stability index": 2.21}
{"variant": "SLGKQKVFIIRKSLLDELQEVQHF", "protein stability index": 2.25}
{"variant": "SLGKQKVFIIRKSLLDETMEVQHF", "protein stability index": 1.31}
{"variant": "SLGKQKVFIIRKSLLDELMTVQHF", "protein stability index": 2.8}
{"variant": "SLGKQKVFIIRKSLHDELMEVQHF", "protein stability index": 1.78}
{"variant": "SLGKQKVFIIRKSLLDELMEVQHT", "protein stability index": 1.8}
{"variant": "SLGKQKVFIIDKSLLDELMEVQHF", "protein stability index": 2.22}
{"variant": "SLGKQKVFIARKSLLDELMEVQHF", "protein stability index": 1.9}
{"variant": "SLGKSKVFIIRKSLLDELMEVQHF", "protein stability index": 2.73}
{"variant": "SLGKQKKFIIRKSLLDELMEVQHF", "protein stability index": 2}
{"variant": "SLGKQKVFIIRNSLLDELMEVQHF", "protein stability index": 2.32}
{"variant": "SLGKQKVFIIRKVLLDELMEVQHF", "protein stability index": 1.88}
{"variant": "SLGKQKVFIKRKSLLDELMEVQHF", "protein stability index": 1.48}
{"variant": "SLGKQKVQIIRKSLLDELMEVQHF", "protein stability index": 1.97}
{"variant": "RLGKQKVFIIRKSLLDELMEVQHF", "protein stability index": 1.94}
{"variant": "SLGWQKVFIIRKSLLDELMEVQHF", "protein stability index": 2.19}
{"variant": "SLGKQKPFIIRKSLLDELMEVQHF", "protein stability index": 1.49}
{"variant": "SFGKQKVFIIRKSLLDELMEVQHF", "protein stability index": 3.72}
{"variant": "SLGKQKVFIIRKSLLDWLMEVQHF", "protein stability index": 3.08}
{"variant": "SLGKQKVFIIRKSLLDHLMEVQHF", "protein stability index": 4.16}
{"variant": "SLGKQKEFIIRKSLLDELMEVQHF", "protein stability index": 1.67}
{"variant": "SLGKQKTFIIRKSLLDELMEVQHF", "protein stability index": 2.16}
{"variant": "SLGKQKVFIIRKSLPDELMEVQHF", "protein stability index": 1.56}
{"variant": "SLGKQKVFIIRKSLLDELMEVQQF", "protein stability index": 2.31}
{"variant": "SNGKQKVFIIRKSLLDELMEVQHF", "protein stability index": 2.58}
{"variant": "SLGKQKVFIIRKSLLDELMEVQHK", "protein stability index": 2.4}
{"variant": "SLGKQKVFAIRKSLLDELMEVQHF", "protein stability index": 1.99}
{"variant": "SLGKQKVFIIRKSLLDELMEVQAF", "protein stability index": 2.24}
{"variant": "SLGKDKVFIIRKSLLDELMEVQHF", "protein stability index": 2.01}
{"variant": "SLGKQKVFIIRKSLLDELMEVQHH", "protein stability index": 1.36}
{"variant": "SLGKQKVFIIRKSLLDGLMEVQHF", "protein stability index": 2.81}
{"variant": "SLGKQKVFIIRKSLLDELMEQQHF", "protein stability index": 4}
{"variant": "SLGEQKVFIIRKSLLDELMEVQHF", "protein stability index": 1.52}
{"variant": "SLGKQKVFIIRKALLDELMEVQHF", "protein stability index": 1.43}
{"variant": "SLGKQKVFIIRKSDLDELMEVQHF", "protein stability index": 2.19}
{"variant": "SLGKQKVFIIRKSLLDEVMEVQHF", "protein stability index": 2.5}
{"variant": "SLGKQQVFIIRKSLLDELMEVQHF", "protein stability index": 2.98}
{"variant": "SLGKQKSFIIRKSLLDELMEVQHF", "protein stability index": 1.74}
{"variant": "SLGKQKVFIIRKSLLDELAEVQHF", "protein stability index": 3.02}
{"variant": "SLGKQKDFIIRKSLLDELMEVQHF", "protein stability index": 1.48}
{"variant": "SLVKQKVFIIRKSLLDELMEVQHF", "protein stability index": 2.97}
{"variant": "SLGKQKVFIIRKSLEDELMEVQHF", "protein stability index": 2.29}
{"variant": "SLGKQKVFIIRKSLLDELMESQHF", "protein stability index": 2.63}
{"variant": "SLGKQKVFIIRKSLCDELMEVQHF", "protein stability index": 2.08}
{"variant": "SLGKQYVFIIRKSLLDELMEVQHF", "protein stability index": 2.67}
{"variant": "SLGKQKVFSIRKSLLDELMEVQHF", "protein stability index": 2.15}
{"variant": "SLGIQKVFIIRKSLLDELMEVQHF", "protein stability index": 2.17}
{"variant": "SLGKQKVFIIRKSLLRELMEVQHF", "protein stability index": 4.61}
{"variant": "SLGKQKVFIIRKSPLDELMEVQHF", "protein stability index": 2.43}
{"variant": "SLGKQKVFIIRKSLLDRLMEVQHF", "protein stability index": 2.41}
{"variant": "SLGKQKVFIIRKSLLDELMEVQHD", "protein stability index": 2.65}
{"variant": "SLGKYKVFIIRKSLLDELMEVQHF", "protein stability index": 1.85}
{"variant": "SLGKRKVFIIRKSLLDELMEVQHF", "protein stability index": 3.01}
{"variant": "SLGKQKVFIIRKSLFDELMEVQHF", "protein stability index": 3.01}
{"variant": "SLGKQKVFIIRKSRLDELMEVQHF", "protein stability index": 2.64}
{"variant": "SLGKQKVFIIRKSLLDELMEVQHQ", "protein stability index": 2.75}
{"variant": "SLGKQKVFIIRKSLLQELMEVQHF", "protein stability index": 2.44}
{"variant": "SLGKQKVFIIRKQLLDELMEVQHF", "protein stability index": 1.69}
{"variant": "SLGKQKVFIIRKSLDDELMEVQHF", "protein stability index": 2.38}
{"variant": "SLGKQKVFIIRKSLLDELMHVQHF", "protein stability index": 1.45}
{"variant": "SLGKQKVFIIRSSLLDELMEVQHF", "protein stability index": 1.23}
{"variant": "SLGKQKVFIIRKGLLDELMEVQHF", "protein stability index": 1.33}
{"variant": "SLGKQKVFIIRKSCLDELMEVQHF", "protein stability index": 1.85}
{"variant": "SLGKQKVFIIRKSMLDELMEVQHF", "protein stability index": 2.25}
{"variant": "SLGKQKVFIRRKSLLDELMEVQHF", "protein stability index": 1.69}
{"variant": "SLGKQKVFIIRKSLLDFLMEVQHF", "protein stability index": 2.52}
{"variant": "SLGMQKVFIIRKSLLDELMEVQHF", "protein stability index": 2.15}
